Reference: publication PMC7263513 (bioRxiv, 2020)

B1: C208 (antibody, V domains shown)
VH: EVQLVQSGAEVKKPGESLKISCKGSGYSFTSYWIGWVRQMPGKGLEWMGIIYPGDSDTRYSPSFQGQVTISADKSISTAYLKWSSLKASDSAMYYCARGPNLQNWFDPWGQGTLVTVSS
VL: EIVLTQSPGTLSLSPGERATLSCRASQSVSGSYLAWYQQRPGQAPRLLIYGASSRATGIPDRFSGSGSGTDFTLTISRLEPEDFAVYYCQQYGSSLTFGGGTKVEIK
B2: C146 (antibody, V domains shown)
VH: EVQLVESGGGLVKPGGSLRLSCAASGLTFTAYRMNWVRQAPGKGLEWLSSISNTNGDIYYADSVKGRFTISRDNAKNSLYLQMNSLRADDTAVYYCARDVASNYAYFDLWGQGTLVTVSS
VL: QSALTQPASVSGSPGQSITISCTGTSSDIGVYNYISWSQQHPGKAPKVMIYDVTNRPSGVSNRFSGSKSGNTASLTISGLQAEDEADYYCSSYRGSSTPYVFGTGTKVTVL
B3: C212 (antibody, V domains shown)
VH: QVQLVQSGAEVKKPGASVKVSCKASGYTVTGYYIHWVRQAPGQGLEWMGWISPNSGGTNYAQKFQGWVTMTRDMSITTAYMELSRLRSDDTAVYYCARERYFDLGGMDVWGQGTTVTVSS
VL: LTQPASVSGSPGQSITISCTGTSSDVGSYNLVSWYQQHPGKAPKLMIYEDSKRPSGVSNRFSGSKSGNTASLTISGLQAEDEADYYCCSYAGSSTRLFGGGTKLTVL
B4: C202 (antibody, V domains shown)
VH: EVQLVESGGGLVQPGGSLRLSCAASGFTVSSNYMSWVRQAPGKGLEWVSLIYSGGSTYYADSVKGRFTISRDNSKNTLYLQMNSLRAEDTAVYYCARDTLGRGGDYWGQGTLVTVSS
VL: DIQLTQSPSSLSASVGDRVTITCQASQDISNYLNWYQQKPGKAPKLLIYDASNLETGVPSRFSGSGSGTDFTFTISSLQPEDIATYYCQQYDNLPRSFGQGTKLEIK
B5: C216 (antibody, V domains shown)
VH: EVQLVESGGGLVQPGGSLRLSCAASGFTFSSYDMHWVRQATGKGLEWVSAIGTAGDTYYPDSVKGRFTISRENAKNSLYLQMNSLRAGDTAVYYCARDRGSSGWYGWYFDLWGRGTLVTVSS
VL: not shown
B6: C210 (antibody, V domains shown)
VH: EVQLVESGGGLIQPGGSLRLSCAASGFTVSSNYMSWVRQAPGKGLEWVSVIYSGGSTFYADSVKGRFTFSRDNSKNTLYLQMNSLRAEDTAVYYCARDLMAYGMDVWGQGTTVTVSS
VL: DIQLTQSPSFLSASVGDRVTITCRASQGISSYLAWYQQKPGKAPKLLIYAASTLQSGVPSRFSGSGSGTEFTLTISSLQPEDFATYYCQQLNSYPQGTFGGGTKVEIK
B7: C207 (antibody, V domains shown)
VH: not shown
VL: EIVLTQSPATLSLSPGERATLSCRASQSVSSYLAWYQQKPGQAPRLLIYDASNRATGIPARFSGSGSGTDFTLTISSLEPEDFAVYYCQQRSNWPRGFGQGTKVEIK
B8: C165 (antibody, V domains shown)
VH: QVQLVQSGAEVKKPGSSVKVSCKASGGTFSSYAINWVRQAPGQGLEWMGRIIPIVGIANYAQKFQGRVTITADKSSSTAYMELSSLRSEDTAVYYCARDLLDPQLDDAFDIWGQGTMVTVSS
VL: not shown
B9: C201 (antibody, V domains shown)
VH: EVQLVESGGGLVQPGRSLRLSCAASGFTFDDYAMHWVRQAPGKGLEWVSGISWNSGSIGYADSVKGRFTISRDNAKNSLYLQMNSLRAEDTALYYCVKGVEYSSSSNFDYWGQGTLVTVSS
VL: IRMTQSPSSVSASVGDRVTITCRASQGISSWLAWYQQKPGKAPKLLIYVESSLQSGVPSRFSGSGSGTDFTLTISSLQPEDFATYYCQQANSFPLTFGGGTKVEIK
B10: C211 (antibody, V domains shown)
VH: EVQLVESGGGLVQPGGSLRLSCAASEFTVSSNYMSWVRQAPGKGLEWVSVIYSGGSTFYADSVKGRFTISRDNSKNTLYLQMNSLRPEDTAVYYCARDYGDFYFDFWGQGTLVTVSS
VL: EIVMTQSPATLSVSPGERATLSCRASQSVSSNLAWYQQKPGQGPRLLIYGASTRATGIPARFSGSGSGTEFTLTISSLQSEDFAVYYCQQYNNWPRTFGQGTKVEIK
B11: C214 (antibody, V domains shown)
VH: QVQLVESGGGVVQPGRSLRLSCAASGFTFSSYGMHWVRQAPGKGLEWVAAIWYDGSNKHYADSVKGRFTISRDNSKNTLYLQMNSLRAEDTAVYYCARDVGRVTTWFDPWGQGTLVTVSS
VL: not shown
B12: C164 (antibody, V domains shown)
VH: EVQLVESGGGLVQPGGSLRLSCAASGFSVSTKYMTWVRQAPGKGLEWVSVLYSGGSDYYADSVKGRFTISRDNSKNALYLQMNSLRVEDTGVYYCARDSSEVRDHPGHPGRSVGAFDIWGQGTMVTVSS
VL: QSALTQPASVSGSPGQSITISCTGTSNDVGSYTLVSWYQQYPGKAPKLLIFEVTKRSSGISNRFSGSKSGNTASLTISGLQGEDEADYYCCSYAGASTFVFGGGTKLTVL
B13: C204 (antibody, V domains shown)
VH: EVQLLESGGGLEQPGGSLRLSCAASGFTFSTYAMSWVRQAPGKGLEWVSAISGSGAGTFYADSVKGRFTISRDNSKNTLYLQMNSLRAEDTAVYYCARESDCGSTSCYQVGWFDPWGQGTLVTVSS
VL: not shown
B14: C215 (antibody, V domains shown)
VH: EVQLLESGGGLVQPGGSLRLSCAASGFTFSSYAMSWVRQAPGKGLEWVSAITDSGDGTFYADSVKGRFTISRDNSKNTLYLQMNSLRAEDTAVYYCASEEDYSNYVGWFDPWGQGTLVTVSS
VL: not shown
B15: C156 (antibody, V domains shown)
VH: QVQLVESGGGVVQPGRSLRLSCAASGFTFSNYGMHWVRQAPGKGLEWVAVISYDGNNKYYADSVKGRFTISRDNSKNTLYLQMNSLRAEDTAVYYCAKDPFPLAVAGTGYFDYWGQGTLVTVSS
VL: SYELTQPPSVSVAPGQTARISCGGNNIGSKNVHWYQQKPGQAPVLVVYDDSDRPSGIPERFSGSNSGNTATLTISRVEAGDEADYYCQVWDSSSDPWVFGGGTKLTVL

What follows are binders tested against T1, SARS-CoV-2 receptor binding domain (RBD) (Severe acute respiratory syndrome …, UniProt P0DTC2) (assay: ELISA).
B1: no binding (tested: >1000 ng/ml).
B2: no binding (tested: >1000 ng/ml).
B3: no binding (tested: >1000 ng/ml).

Each binder was assayed against T1, SARS-CoV-2 receptor binding domain (RBD) (assay: cell-based or functional assay).
In the case of B4, the “IC50 of neutralisation of SARS-CoV-2 pseudovirus (293T_(ACE2) cells)” value (from here on “IC50”) is reported as greater than 1 µg/mL.
With B5 the “IC50” value was greater than 1 µg/mL.
In the case of B6, the “IC50” value is reported as 0.0507 µg/mL.
In the case of B7, the “IC50” value is reported as 0.159 µg/mL.
In the case of B8, the “IC50” value is reported as 0.0408 µg/mL.
With B9 the “IC50” value was greater than 1 µg/mL.
In the case of B10, the “IC50” value is reported as 0.0128 µg/mL.
In the case of B11, the “IC50” value is reported as greater than 1 µg/mL.
In the case of B12, the “IC50” value is reported as 0.239 µg/mL.
With B13 the “IC50” value was greater than 1 µg/mL.
B14 was tested, and the “IC50” value was greater than 1 µg/mL.
With B15 the “IC50” value was greater than 1 µg/mL.
